This series in a line: label from the status in PepcDB records.
Take “MDGSEDDPTIFSARCLPSDPRLWATVTNSYLGTRVYHDTIHINGVYNGAVGDTHRASLPSPLNVQLEAPAGTEQLTETFTLDTNTGSFLHTLEGPSFRASQRIYAHRVLPHVLVFSVSIARLTTGNKPITVPLRADFSPESPDLDLRVGPDFQGLRYLHGHVLNPEQPGEPQQEVHMLWMPVPPALTLGEEEKDRTWEFLTVVGSSQAEAQDCFAEALQLQTRGVLYTIHADSWGRLWAGCGLDVAGPLALRQALRGSLYYLFSELPQPGTQGFISHGLSPGGLSNGSKEECYWGHIFWDQDIWMFPNILMFHPEAARAILEYRVRTLGGALKNGQNLGYQGAKFAWESASTGLEVCPEDIYGTQEIHINGAVALAFQLYYYYTQDSKLFQEDGGWDVVSSVAEFWCSRVEWSSQDKMYHLKGVMPPDEYHSGVNNSVYTNVLVQNSLHFAAALAKDLGLPIRKQWLEVADRIKIPFDSEQNFHPEFDGYERGEEVKQADVVLLGYPVPFPLTPDIRRKNLETYEAVTSPQGPAMTWSMFAVGWMELRDPSRAQVHLSRSFANVTEPFKVWTENADGSGAVNFLTGMGGFLQAALFGCTGFRITEAGVTFDPLCPDLVSRVSVSGISYLGNKINFAFSKDSVTLEVTARAEPWAPLLEAELWPSLAHLPLTPGQKVSFPHSAGRIQRSSP”: the protein production entry is recorded as “failed”. For the sequence “MDHFSYRNTNKMVRTHVVVGSRPCCFSCAMEEKDPCVRKAWLELSLRDMHMIRDDTELALTLSFIWRYAMADPENPELPSLGVFECMTRLMKKGLEDVEWVMTGQNVYVPYYAAHIIGSYTMKKPDFATKAVESGVIAPLLELMRRKMSWVEQRVVVRALGHLASYETTFEAVAAYEDEVVRLAMEIAMTCVDVVYEEFVSVQEKEGRVRYHSDLLTRGLGGLEMEDRKAEEWASQLQCWSLHLLNCFAYKQKCISLICNKTFLKELSQMWGGLVNHTSPSGIGLIRILCYSKQGRRHVSGSREMILSLCNLSRSSDDWQYMGIDCLLLLLKDQATRYNVLEMSLFYLVDLVEVKALNVRKNLGDRITKVLLMHYCKTKKGCAYSHKAQKALKELWRNKVERRRRERKFMSKNQDFLRETSVVVYLIKQQANQLLHVGDIEGAIKCYTEAIGLCPLKLRRKRMNLYSERGECYLLLGDVDAAISDCTRALCLSEPVNSHGKSLWTRSRAYDIKGLSRESLMDCIMFVNGRCFRGNIPYYAAQMISKQMEATWLFEKARASKLGRMMLKEKFHLTGIFIFLYICMNISS”, the protein production result is “failed”. Regarding “MDHKDYSRQNAERRLLLSKDEERIRDELEMEIERNLEGEFKDGIYNLALKLRRLYEQRREREELFDVSMRKSKRVLEVNINIKMEGDTKIEITEKKKEVDNEKTKKAENSDKRKKFVAVGEDKTGKEKMKNQTRAHELRWKW”, the protein production entry is on record as “failed”. As for “MDHLPMPKFGPLAGLRVVFSGIEIAGPFAGQMFAEWGAEVIWIENVAWADTIRVQPNYPQLSRRNLHALSLNIFKDEGREAFLKLMETTDIFIEASKGPAFARRGITDEVLWQHNPKLVIAHLSGFGQYGTEEYTNLPAYNTIAQAFSGYLIQNGDVDQPMPAFPYTADYFSGLTATTAALAALHKVRETGKGESIDIAMYEVMLRMGQYFMMDYFNGGEMCPRMSKGKDPYYAGCGLYKCADGYIVMELVGITQIEECFKDIGLAHLLGTPEIPEGTQLIHRIECPYGPLVEEKLDAWLATHTIAEVKERFAELNIACAKVLTVPELESNPQYVARESITQWQTMDGRTCKGPNIMPKFKNNPGQIWRGMPSHGMDTAAILKNIGYSENDIQELVSKGLAKVED”, the protein production entry was “not failed”. On to “MDHSLNSLNNFDFLARSFARMHAEGRPVDILAVTGNMDEEHRTWFCARYAWYCQQMMQARELELEH”, for which the protein production entry is on record as “not failed”. Under “MDIEIENHPLEPFLPANARLLMLGSFPPQKKRWSMDFYYPNLNNDMWRIVGLLFFNNKDYFLNETRKAFCRERIISFLNDKGIALFDTASAIRRLQDNASDKFLEVVQPTDISRLLGQLPECKAIVTTGQKATDTLRAQFEVEEPKVGDFSEFVFDGRPVRLYRMPSSSRAYPLALDKKAAAYRTMYQDLQMLNIELEHHHHHH” stands “not failed”; under “MDIEVDIIEFKVPLENNKTIFIWDIQPTFTEAYIYESLWSVYSAFGDLYLLKVCPNATVAEPGFYALVKFYSSAQASKAQRATDKQCLFQSSPLKVRLSTKQNLSFYSSKPLCLSKCHNLANHYLGFGGWTTRIVTLKDLSNCVDAGCQEETGDQGVLLKYGCIMELSFPHHGMSCQGVGVAEEVLDSDQDPEEKLRKRGALMKRAKDKAMEVAFEKVLLLILGNGKVAIEIKIDPDEIVPEENSERVIKVNDISWTHIESADSNAEEDFLWDLTEDLPY”, “failed”.

The record behind these values is a protein production outcome set (Wang et al. 2014).
